Patent US20170247475A1 (Boehringer Ingelheim, published 2017)
Where a chain is given by its changes, count along the chain named.

B1: VEGFBII88G03 (VHH)
VHH: EVQLVESGGGLVQAGGSLRLSCAASGGTFSSLAVGWFRQAPGKEREFVARITWSGATTYYADAVKDRFTISRDNAKNTMYLQMNSLKPEDTAVYYCAADRSPNIINVVTAYEYDYWGQGTQVTVSS
B2: VEGFBII88G05 (VHH)
VHH: EVQLVESGGGLVQPGASLRLSCAASGDGFTLYNMGWFRQAPGKEREFVAAITSSPMSTYYADSVKGRFSISINNDKTTGFLQMNVLKPEDTGVYFCAAPEGSFRRQYADRAMYDYWGQGTQVTVSS
B3: VEGFBII88G11 (VHH)
VHH: EVQLVESGGGLAQAGGSLRLSCAASGRTFSGSDMGWFRQSPGKEREIVAAIRLSGSITYYPDSVKGRFTISRDNAKNTVYLQMNSLKPEDTAVYYCAARSTYSYYLALADRGGYDYWGQGTQVTVSS
B4: VEGFBII88H01 (VHH)
VHH: EVQLVESGGGLVQAGGSLRLSCVASGFTLGTYAIGWFRQAPGKEREAVSCMSAGDSIPWYTASVKGRFTTSTDNARNTVYLQMNSLKPEDTAHYYCAAARYHGDYCYYEGYYPFWGQGTQVTVSS
B5: VEGFBII89B04 (VHH)
VHH: EVQLVESGGGLVQAGGSLRLSCAASTSISSTNFMGWYRQAPGKQRELVATITSSSITNYVDSVKGRFTISRDNAKNTVYLQMTSLKPEDTAVYYCHARWRWSDVEYWGKGTLVTVSS
B6: VEGFBII89B08 (VHH)
VHH: EVQLVESGGGLVQPGGSLRLSCAASGTTSSIFAMRWYRQAPGKQRELVASITRSSITTYADSVKGRFTPSRDNAKNTVSLQMNSLKPEDTAVYYCNAAIRPELYSVVNDYWGQGTQVTVSS
B7: VEGFBII89G09 (VHH)
VHH: B6 VHH with P69L
B8: VEGFBII89D04 (VHH)
VHH: EVQLVESGGGLVQPGGSLRLSCATSGLTFSDYNLGWFRQAPGKERQFVAVISWRDSFAYYAEPVKGRFTISRDNAKNTVYLQMNSLKPEDTAVYYCAADRVSSRLVLPNTSPDFGSWGQGTQVTVSS
B9: VEGFBII89F09 (VHH)
VHH: EVQLVESGGGLVQAGDSLRLSCAASGRTFNNAIMGWFRQAPGQEREFVAAMNWRGGPTYYADSVKGRFTISGDNTKNTVFLQMNFLKPEDTAVYYCAADEDLYHYSSYHYSRVDLYHYWGQGTQVTVSS
B10: VEGFBII89H08 (VHH)
VHH: EVQLVESGGGLVQAGGSLRLSCAASGGSFSSYAPGWFRQAPGKEREFVAAFTRSSNIPYYKDSVKGRFTISRDNAHTVYLQMNSLKPEDTAIYYCAVNLGSTWSRDQRTYDYWGQGTQVTVSS
B11: VEGFBII01C02 (VHH)
VHH: EVQLVESGGGLVQAGGSLRLSCTASGGSFSSYGMGWFRQSPGKEREFVSAISEYSNTYCSDSVRGRFTISRDNTKNTVYLQMNSLTPDDTAIYYCAASPTILLTTEQWYKYWGQGTQVTVSS
B12: VEGFBII01E07 (VHH)
VHH: EVQLVESGGGLVQAGDSLRLSCVATGRTFRASDMGWFRQAPGKEREFVAAINWSGLSTFYTDSVKGRFTISRDNDNGALYLQMNTLKPEDTAVYSCAAGRIPSSSRFSSPAAYASWGQGTQVTVSS

Target: T1, recombinant human VEGF165 (human, UniProt P15692-4 27-191)
T1 construct: also called hVEGF165; rhVEGF165
Experiment: ELISA screen, periplasmic extract on coated hVEGF165
Excerpt: Wells are blocked with a casein solution (1%). After addition of typically a 10-fold dilution of the periplasmic extracts, VHH binding is detected using a mouse anti-myc (Roche) and an anti-mouse-HRP conjugate (DAKO). Clones showing ELISA signals of >3-fold above background are considered as VEGF binding VHHs.

T1 sequence (P15692 other isoform, or with tags, fused parts or gaps limits assumed): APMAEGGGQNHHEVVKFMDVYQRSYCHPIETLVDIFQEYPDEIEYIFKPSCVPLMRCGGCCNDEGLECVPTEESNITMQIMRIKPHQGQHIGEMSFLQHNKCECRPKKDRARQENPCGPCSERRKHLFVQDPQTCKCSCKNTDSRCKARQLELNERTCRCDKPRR

binding result | Binder
binds | B1
binds | B2
binds | B3
binds | B4
binds | B5
binds | B6
binds | B7
binds | B8
binds | B9
binds | B10
binds | B11
binds | B12
